The results in this text go back to patent publication US20120328589A1.

This test addresses mannose receptor (on NR8383 rat alveolar macrophages) (rat). The test is described as follows: cell-based or functional assay.

As to “Plant recombinant human glucocerebrosidase (prh-GCD) (from UniProt P04062 40-536) (enzyme)”, the uptake by rat alveolar macrophages in the absence of mannan (GCD activity in cell lysate, pNP-G assay) was 333 ng/mL lysate and the uptake by rat alveolar macrophages, reduction by mannan (GCD activity in cell lysate, pNP-G assay) worked out at 90%.
“prh-GCD cross-linked with bis-NHS-PEG5 at a 50:1 bis-NHS-PEG5:GCD molar ratio (from UniProt P04062 40-536) (enzyme)” showed an uptake by rat alveolar macrophages in the absence of mannan (GCD activity in cell lysate, pNP-G assay) of 200 ng/mL lysate and an uptake by rat alveolar macrophages, reduction by mannan (GCD activity in cell lysate, pNP-G assay) of 85%.
